As usually defined, the stoichiometry N is a count of units in the complex or per binding partner.

The data set concerns the molecule itself. As to the kind of experiment: crystal structure; apo-hIRE1 (no nucleotide), hanging-drop vapor diffusion, 18-20% PEG3350, 0.2 M sodium malonate, Bis-Trispropane pH 6.5, 18°C; 2 molecules in the asymmetric unit.

B1: cytoplasmic region of human IRE1 (residues 547-977) (domain or fragment, UniProt O75460 547-977, looked up)
chain: GSSPSLEQDDGDEETSVVIVGKISFCPKDVLGHGAEGTIVYRGMFDNRDVAVKRILPECFSFADREVQLLRESDEHPNVIRYFCTEKDRQFQYIAIELCAATLQEYVEQKDFAHLGLEPITLLQQTTSGLAHLHSLNIVHRDLKPHNILISMPNAHGKIKAMISDFGLCKKLAVGRHSFSRRSGVPGTEGWIAPEMLSEDCKENPTYTVDIFSAGCVFYYVISEGSHPFGKSLQRQANILLGACSLDCLHPEKHEDVIARELIEKMIAMDPQKRPSAKHVLKHPFFWSLEKQLQFFQDVSDRIEKESLDGPIVKQLERGGRAVVKMDWRENITVPLQTDLRKFRTYKGGSVRDLLRAMRNKKHHYRELPAEVRETLGSLPDDFVCYFTSRFPHLLAHTYRAMELCSHERLFQPYYFHEPPEPQPPVTPDAL
On to B1, for which the “stoichiometry N” value worked out at 2.

The record behind these values is paper PMC4536996, “Molecular mechanisms of human IRE1 activation through dimerization and ligand binding” (Oncotarget, 2015).
